Reference: the DeepSol protein solubility set

test: soluble on expression in E. coli; label from the status in PepcDB or PDB records

Sequence	soluble on expression in E. coli
MPVKIPDHLPAAGILESENIFVMSETRAANQDIRPMKVLILNLMPNKIETETQLLRLLGNTPLQVDVDLLRIHDKESKHTSIDHMNTFYRDFEDVRHKNYDGLIITGAPLGQIDFEDVTYWDHIREIIDWSQQHVTSVLFLCWAAHAGLYHLYGLNRKILEQKRSGVFVHRRTCQHFPLLRGFDDEFFAPHSRFAEMDVEEIRQHPQLQLLAESDEAGAYLVLSRNNRNLFVMGHPEYQKSTLNDEYHRDLAQSLNPNVPQNYYRNDDPKADAIARWHSHGSLLVSNWLNYYVYQLTPYDLSDMTAMTPWESQMAGDPLEHHHHHH	soluble
MPVLALRLTALAALVISVSGCVMEAYGSRARSDAQSWIGLPIQDVIKRFGEPERVTGDAARQKYVWKEYENYSHDYDYTYYEQGHGNTPNSSVLNQKTGTANQSGYYTCIYEFFADASGRVVDATARGECR	not soluble
MPVLHNRISNDELKAKMLAESEPRTTISFYKYFTIASPQQTRDALYQVFTALDVFGRVYLAHEGINAQISVPQSKLETFRQQLYTFDPALDGVRLNIALEDDGKSFWVLRMKVRDRIVADGIDDPTFDASNVGDYLKAADVNAMLDDPDAVFIDMRNHYEYEVGHFENALEIPADTFREQLPKAVEMLREHADKKIVMYCTGGIRCEKASAWMKHNGFNKVWHIEGGIIEYARRARAQGLPVRFIGKNFVFDERMGERISDEVIAHCHQCGASCDSHTNCKNDGCHLLFIQCPQCASKFNGCCSEQCCEELALPEEEQRRRRAGRENGNKIFNKSRGRLNSKLSIPDPAEAAALEHHHHHH	soluble
MPVTNMAELDAMIARVKKAQEEFATYSQEQVDKIFRAASLAANQARIPLAQQAVEESGMGIVEDKVIKNHFASEFIYNKYKDEQTCGILEEDDNLGTMTIAEPVGIICGIVPTTNPTSTAIFKSLISLKTRNGIIFSPHPRAKNSTNDAAKLVLDAAVAAGAPKDIIGWIDQPSVELSNALMKHDDIALILATGGPGMVKAAYSSGKPAIGVGAGNVPVVIDETADIKRAVASVLMSKTFDNGVVCASEQAVIVVDEVYDEVKERFASHKAHVLSKTDADKVRKVLLIDGALNAKIVGQPATAIAEMAGVKVPADTKVLIGEGLGKVSYDDAFAHEKLSPTLGMFRADNFEDAVAQAVTMVEIGGIGHTSGLYTNQDVNADRIRYFGDKMKTARILINIPTTHGGIGDLYNFNVAPSLTLGCGSWGGNSISENVGPKHLINKKTVAKRAENM	soluble
MPVTQEEIIAGIAEIIEEVTGIEPSEITPEKSFVDDLDIDSLSMVEIAVQTEDKYGVKIPDEDLAGLRTVGDVVAYIQKLEEENPEAAQALRAKIESENPDAVANVQARLEAESK	soluble
MQAKEEKEFTLQERRCLIVWVYTLKPLKQLRRYGLIHYVSRKMKYVVIYMNEENIESNMEKINQLHFVRSVDKSYRPDVEMNFAEKIGTKAAYQEQEDDGYVVEELSTEIRLAENV	not soluble
MQAKIKNKRVLVKFSGEALAGDNQFGIDIHVLDHIAKEIKSLVENDIEVGIVIGGGNIIRGVSAAQGGIIRRTSGDYMGMLATVINAVAMQEALEHIGLDTRVQSAIEIKEICESYIYRKAIRHLEKGRVVIFGAGTGNPFFTTDTAATLRAIEIGSDLIIKATKVDGIYDKDPNKFKDAKKLDTLSYNDALIGDIEVMDDTAISLAKDNKLPIVVCNMFKKGNLLQVIKHQQGVFSMVKLEHHHHHH	not soluble
MQASQFSAQVLDWYDKYGRKTLPWQIDKTPYKVWLSEVMLQQTQVATVIPYFERFMARFPTVTDLANAPLDEVLHLWTGLGYYARARNLHKAAQQVATLHGGKFPETFEEVAALPGVGRSTAGAILSLSLGKHFPILDGNVARVLARCYAVSGWPGKKEVENKLWSLSEQVTPAVGVERFNQAMMDLGAMICTRSKPKCSLCPLQNGCIAAANNSWALYPGKKPK	soluble
MQAYRGTGKTSQLISQKKPISILILGVDQGIEGRHDRGNSDTMILATMNPEKKEATMTSIPRDLLADIKGDGRGEGKYYMFRANSAYQVGGSKGATRTVKALLNTPVNYYMEVNMKALESMVEALGGVDVNVPFTFTYHTHFRKGKQHLNGKEALDYVRMRKEDPKGDYGRQMRQRQVINDIVRKGMSVNSITNYRKILKVFAKYVKTNLTFDDMLSIAMNYRGCTQNIKSGYIQGHNVWIGAAAMQVASTKELQRVSDLVRSSLGLKQEKLEHHHHHH	soluble
MQAYTYTIIQRLDNLNQQRIDRALALMDSQSQQVFHLIPALLNYNHPVIPGYYDADVPFGVHGLELNPIQQQFIDDIQLAIGQPLKTAEKPAILGLYTMGSTSSIGQSTSSDLDIWVCISPEMDCDERELLTNKCLLITDWAQSQGVEANFFLMDEERFRSNHSEEMTGDNCGSSQHLLLLDEFYRSAVRIAGQRLLWQIVPPEMEECYDEYVSQLCSDGYIDCSEWIDFGKLNRIPAEEYFGSNLWQLYKSIDSPYKSVLKAILLEAYSWEYPHTQLLSIDTKRRFFAHEPDLYGMDAYYLMLEKVTRYLERIQDDTRLDLVRRCFYLKTHEKLSREPDVGSVAWRREALSDMIAKWNWDDSVVAELDDRRNWKVEQVKVVHHALLDALMQSYRNLIQFARRNDITSAISPQDISILARKLYAAFEVLPGKVTLLNPQISPDLHEADLSFIEVKEGGVNKSGWYLYKQPLIAHRILGQPCLEHHEYLSKLVSWAFFNGLITESTRLHAVVREAQLDIDKFYQMVSDLRNTFALRKRRPTMQALASPCEISQLAMFINFENDPTSELSGRSLKVDVKNTDIFSFGPEHKNLVGSVDLVYRNSWHEVRTLHFKGETAMLDALKTILGKMHQDALPPESVDVFCYAKNMRGVMRNMVYQLLAECIDLRLKPVEQEKRRRFKAMRLGNQTYGLFFERRGVSVQKLENSIDFYRSISTNKLKGSPLLMLDREQEYQLPEAVDGFASEGLVQFFFEDNEDGFNIYVLDESNQVEVYHQFSGSKDEMIASVNSFYTSVKDDSRVASKFINFNLPQYYQIIHPEEGNAYIIPYRNDGCSP	not soluble
MQCCVQLVPFWDTSGVSTMFDYQVSKHPHFDEACRAFALRHNLVQLAERAGMNVQILRNKLNPAQPHLLTAPEIWLLTDLTEDSTLVDGFLAQIHCLPCVPINEVAKEKLPHYVMSATAEIGRVAAGAVSGDVKTSAGRRDAISSINSVTRLMALAAVSLQARLQANPAMASAVDTVTGLGASFGLL	not soluble
MQDIHFRRHYVRHLPKEVSQNDIIKALASPLINDGMVVSDFADHVITREQNFPTGLPVEPVGVAIPHTDHKYVRQNAISVGILAEPVNFEDMGGEPDPVPVRVVFMLALGESNKQLNVLGWIMDVIQDEDFMQQLLVMNDDEIYQSIYTRISERGEV	soluble
MQDSKIPPFSEAKRMKIPTPKQPLTQLPPRIGKKVSNRSKSNQVHAISHQLEMSPNSDSSPGNEYRALRRKYLLLEEDSFALERELKEAEDEVKALEDEKLELLDKLVVMEGLVDP	soluble
MQEIGILENLQKSLALKEGMLSYEMLGKSLSYNPYLPRVIPQTKDCVFVTPDEVLEKLLKENTHTDCVIVNFKGLYEIGAPSVFNLEVLGLLRRHASSLIVHQDLFISHYQLLESLVQGSDGVVLDEELLKEDLKGMVEFSWRLGLSVFVETHKQDYTHLKDLGVLGVLEKVPHSQNQKRIVFLD	not soluble
MQEIIFIDEGSFPTPEGVTREWVQGAAENRDEDEKLFSIIREAFQIKIDAGVQVPTYPQFRDMIGQFFDIIKDEKNCHEPYVLKEERATILELEAIDEVAKQYKIETGKTLEVRVCIAGPTDMYYQAFGATAFVDVYDILAKDIEKFIKQAFKTAKNFKIKVIALDEIGLGLNDKIQFSDDEIISALTVASTFARQQGADVEIHVYSPLKYELICETPINVIGFEYAGNPSYIDLLDRKVLEDSDAYAGVGISRTDIFSLISIVNEKYGINAWKDKEYMQKIVTELETPDIIKKRLETAYSVLGDRIKYANPDCGLAFWPDQELAFRLLENTAKAVNEFNAEGIINKAAALEHHHHHH	not soluble
MQEIIFIDGGSLPTPEGFTREWVKAAAESRTEDQKLFSLVSDAFQRKIDAGVHVPTYPQFRDMIGQFLDIIRDEKNCYEPYVLKEENAKILELEIIDEVAKQYRERTGKTLEVRVCVAGPTDLYLQAFGATAFSDAYHIMALNIENFIKQAFKAAKNFKIKVIALDEPSLGMNDKIQFSDLDIVSALTLASTYARKQGADVEIHLHSPLKYKLICETPINVMGFEYAATPSYIDLMDKKILEDSNTYIRLGVSRTDISSLIGMVNETYGVNAWKEKEYMQKIVTELETPDIIQKRLEKACSILGDRIKYASPDCGLAFWPDQELAFRLLENTAKGINAFNAEMKDLLEHHHHHH	not soluble
MQEQIQEYAKRLKLSWIRENYREVEAANTEEYLLKLFEKEIEQREERKINLLFKAATLPNVSGKPFDWKDIQLGQGLSQQSLLDGEFIESKENMVFYGGVGAGKTYLSTLIGMNAIQKYGKRVKFYTIASLANELLEANDKGNLNKLFKKIEKLDLLILDELGYIPLHKHGAELLFQVISLCYEKRSIIITTNLQFGQWNHVFGDPILTEAVVDRLIHHSHLVIFGGDSNRMKKSFLLNNMLEHHHHHH	soluble
MQFNPGFSSLAALLADPGRAQMIWALMDGSARPASELALLAGVSPSSASGHLGRLVEGGVLSLEARGRNRFYRLAGPEVGQAVEALASASLALQPQRRSLPPSHGTPSALREARTCYDHLAGELAVGVFARMLDAGWIEQEGRTLRLSATGEAGLAGLGIDLAEVRRRRRQFACACPDWSERKPHLGGALGAALLEACLRQGWLRPQDGSRALQVSSKGRAGLRGLAERTAG	not soluble
MQGRVKWFNAEKGFGFIEREDGDDVFVHFSAIQQDGYKSLEEGQQVEFDIVDGARGPQAANVVKL	not soluble
MQGTKIRLMVGGLLLAAASNNVQAEALQPDPAWQQGKLDNGFSWQLLATPQRPSDRIELRLIVNTGSLSENTQEVGFAHLLPRLALMSSASFTPAQLQSLWQQGIDNERPLPPAITSYDFTLYSLSLPNNRPDLLKDALAWLSDTAGNLAVSEQTVNAALNTATDPIATFPQNIQEPWWRYRLKGSSLIGHDPGQPVTQPVDVEKLKQFYQQWYTPDAMTLYVVGNVDSRSIAAQISKAFSELKGKRTAPAAVATLAPLPPEPVSLMNEQAAQDTLSLMWDTPWHPIQDSMALSRYWRSDLAREALFWHIKQVLEKNNQKNLKLGFDCRVQYQRAQCAIHLNTPVENLTANMTFVARELAALRANGLSQAEFDALMTQKNDQLSKLFATYARTDTDILMSQRLRSQQSGVVDIAPEQYQKLRQAFLSGLTLAELNRELKQQLSQDTTLVLMQPKGEPEVNVKALQEIYNGIMAPQTVAEEEVAPAEAVETAPVMPTTAQ	not soluble
MQHSLGLIEVSGMSLAITVADVMAKTAQIRLIGVERTIGSGWMLVKIAGDVAAVRTALSAGEETARAHQGFVACTTIARPAKGTGELVSTTKPPRAEPVQKITVLPAVALTASAAHTTTGPESVQEDPDAEKAVPPIREAVEGSTGNIIQVDAINDPVETAREISKPNASAKSPPAEYGEKQSVATVKAFPVMGDIATDLDIPTASARSVAVAQQVKPGISLHQFHYQEKPDDETADAGSQQTGETKQAVAISAKLLVTCKICGDPSCPRHKGQPRSRCIHNQKSVLR	not soluble
MQHSLRSDGAGFYQLACCEYSLSMRKIALSGGFWGGVCRMAMKSIFFMFHQGNRRLTLTAVQGILLRFSLF	not soluble
MQIDDALLQRLEKLSMLEIKDEHKESVKGHLAEVLGFVENIFALETSALKTDIELCTPLREDEPKSQPNTAKEILSQNKHSQDHYFVVPKIIE	not soluble
